Positions count from the first letter of the chain named. Blank lines part the entries; values can stand above or below the binder they belong to.
Tests used:
[1] = biological target: T1, full length human Shh expressed on the cell surface (human, UniProt Q15465 24-462); assay: flow cytometry, transfected against parental 293T cells
T1 construct: whole, on cells; also called native human Shh; Shh-FL
Protocol: (§1) Finally, binding of antibody in exhaust hybridoma supernatants to native Shh was assessed using flow cytometry. […] Transfected or parental cells were seeded into the plates with V-bottom wells (50,000 cells/well). Exhaust supernatants (50 μl of a 1:10 dilution) were added to each well and incubated at 4° C. for 1 hr. […] It was added to a concentration of 2 μg/ml in a volume of 50 μl. Cells were washed and 50 μl of a 2 μg/ml solution of secondary antibody (Cy5-labeled goat-anti-human IgG or Cy5-labeled goat-anti-rabbit IgG) were added to each well. 7AAD was added to a concentration of 5 μg/ml and the mixture was incubated for 30 min at RT. The mean fluorescence for each sample was then determined using flow cytometry.

[2] = biological target: T1, full length human Shh expressed on the …; assay: flow cytometry, exhaust hybridoma supernatant 1:10, 293T cells transiently expressing human Shh
Protocol: as §1

[3] = biological target: T1, full length human Shh expressed on the …; assay: FMAT, hybridoma supernatant on 293T cells transiently expressing human Shh
Protocol: Cells were maintained at 1×10⁶ cells/ml overnight at 37° C., 5% CO₂. […] Supernatants were added to each well (10 μl/well) and incubated 1.5 hrs at RT. […] Plates were read on the FMAT 8100 HTS system from Applied Biosystems. Total signal (FL1×count) is defined as the number of positive cells in a well (count) multiplied by the average fluorescence intensity of the positive cells (FL1).

[4] = biological target: T1, full length human Shh expressed on the …; assay: cell-based or functional assay
[5] = biological target: T2, Shh-N in conditioned medium (human, UniProt Q15465 24-197, N-terminal palmitoyl modification; lacks the C-terminal cholesterol moiety); assay: cell-based or functional assay
biotinylated human Shh = biological target: T3, biotinylated human Shh (human, UniProt Q15465 24-197, limits assumed, biotinylated); assay: ELISA, hybridoma supernatant on neutravidin-captured biotin-Shh
T3 construct: also called biotin-Shh; immobilized biotinylated Shh
Protocol: After blocking with 1% milk in PBS, 40 μl of 500 ng/ml biotinylated Shh in 1×PBS, 1% milk (wt/vol) was added to each well and incubated for 1 hr at RT. Hybridoma supernatants (10 μl/well) were added to 40 μl of 1% milk, 0.05% Tween-20 in PBS per well and incubated 1 hr at RT. Following washing and incubation with secondary antibody (100 ng/ml goat-anti-human IgG Fc HRP), wells were developed with TMB substrate and subsequently quenched with 1 N HCl.

[6] = biological target: T2, Shh-N in conditioned medium; assay: cell-based or functional assay; remark: listed apart in the source
[7] = biological target: T1, full length human Shh expressed on the …; assay: cell-based or functional assay; remark: listed apart in the source
[8] = biological target: T2, Shh-N in conditioned medium; assay: cell-based or functional assay; remark: listed apart in the source

B1: 1A5 (antibody, V domains shown)
VH: EVQVVESGGDLIQPGGSLRLSCVASGFTVSSNYMNWVRQAPGKGLEWVSVIYSGGNTYYADSVKGRFTISRDNSKNTLYLQMNSLRAEDTAVYYCARDSSVVVGLGYFDLWGRGTLVTVSS
VL: SYELTQPPSVSVSPGQTASITCSGDKLGANYASWYQQKPGQSPVLVIFQDTKRPSGIPERFSGSNSGNTATLTISGTQAMDEADYYCQAWDFSTVIFGGGTKLTVL
notes: fully human XenoMouse hybridoma antibody; tested as hybridoma supernatant and as purified antibody; also called MAb 1A5
ratio [1]: 70.5
X Geo Mean (Transients) [2]: 265
FL1 X COUNT [3]: 304000
% Inh of Gli1 reporter, Co-Culture N = 1 [4]: 20%
% Inh of Gli1 reporter, Co-Culture N = 2 [4]: 27%
% Inh of Gli1 reporter, CM N = 1 [5]: 73%
% Inh of Gli1 reporter, CM N = 3 [5]: 62%
OD450 (biotinylated human Shh): 6 OD450
IC50, inhibition of osteoblast differentiation (alkaline phosphatase) of C3H10T1/2 cells [6]: 4.8 nM
% Inhibition of Gli1 reporter, Co-Culture N = 1, 20 µg/ml [7]: 25%
% Inhibition of Gli1 reporter, Co-Culture N = 2, 20 µg/ml [7]: 20%
% Inhibition of Gli1 reporter, Co-Culture N = 3, 20 µg/ml [7]: 20%
% Inhibition of Gli1 reporter, Conditioned Media N = 1, 20 µg/ml [8]: 35%
% Inhibition of Gli1 reporter, Conditioned Media N = 2, 20 µg/ml [8]: 34%

B2: 1C8 (antibody, V domains shown)
VH: B1 VH with V4L, D10G, V23A, A24V, Y33C, N56K, Y58A, Y79C, V101M
VL: B1 VL with Q16L, A29Y, N30K, F48Y, T51I, F92S, I96V
notes: fully human XenoMouse hybridoma antibody; tested as hybridoma supernatant and as purified antibody; also called MAb 1C8
ratio [1]: 33.3
X Geo Mean (Transients) [2]: 118
FL1 X COUNT [3]: 319000
% Inh of Gli1 reporter, Co-Culture N = 1 [4]: 32%
% Inh of Gli1 reporter, Co-Culture N = 2 [4]: 24%
% Inh of Gli1 reporter, CM N = 1 [5]: 47%
% Inh of Gli1 reporter, CM N = 3 [5]: 43%
% Inhibition of Gli1 reporter, Co-Culture N = 1, 20 µg/ml [7]: 26%
% Inhibition of Gli1 reporter, Co-Culture N = 2, 20 µg/ml [7]: 10%
% Inhibition of Gli1 reporter, Co-Culture N = 3, 20 µg/ml [7]: 23%
% Inhibition of Gli1 reporter, Conditioned Media N = 1, 20 µg/ml [8]: -1%
% Inhibition of Gli1 reporter, Conditioned Media N = 2, 20 µg/ml [8]: 8%

B3: 1F4 (antibody, V domains shown)
VH: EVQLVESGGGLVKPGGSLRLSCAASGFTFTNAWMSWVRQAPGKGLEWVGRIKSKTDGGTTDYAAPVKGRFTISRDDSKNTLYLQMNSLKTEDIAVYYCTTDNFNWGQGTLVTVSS
VL: EIVMTQSPATLSVSPGERATLSCRASQSISSNLAWYQQKPGQAPRLLIYGASTRATGIPARFSGSGSGTEFTLTISSLQSEDFAVYFCQQYHSWWTFGQGTKVEIQ
notes: fully human XenoMouse hybridoma antibody; tested as hybridoma supernatant and as purified antibody; also called MAb 1F4
ratio [1]: 63.8
X Geo Mean (Transients) [2]: 219
FL1 X COUNT [3]: 110000
% Inh of Gli1 reporter, Co-Culture N = 1 [4]: 31%
% Inh of Gli1 reporter, Co-Culture N = 2 [4]: 47%
% Inh of Gli1 reporter, CM N = 1 [5]: 21%
% Inh of Gli1 reporter, CM N = 3 [5]: 9%
OD450 (biotinylated human Shh): 6 OD450
% Inhibition of Gli1 reporter, Co-Culture N = 1, 20 µg/ml [7]: 31%
% Inhibition of Gli1 reporter, Co-Culture N = 2, 20 µg/ml [7]: 18%
% Inhibition of Gli1 reporter, Co-Culture N = 3, 20 µg/ml [7]: 28%
% Inhibition of Gli1 reporter, Conditioned Media N = 1, 20 µg/ml [8]: 2%
% Inhibition of Gli1 reporter, Conditioned Media N = 2, 20 µg/ml [8]: 16%

B6: 1A12 (antibody, V domains shown)
VH: QVYLVESGGGVVQPGRSLRLSCAASGFTFSSYGMHWVRQAPGKGLEWVAVIWYDGSNEYYADSVKGRFTISRDNSKNTLYLQMNSLRAEDTAVYYCARDLYYYGSGSPFDYWGQGTLVTVSS
VL: EIVMTQSPATLSVSPGERATLSCRASQSVSSNLAWYQQKPGQAPRLLIFGVSIRATGIPARFSGSGSGTEFTLTISSLQSEDFAVYYCQQYNDWPRPGFGGGTKVEIK
notes: fully human XenoMouse hybridoma antibody; tested as hybridoma supernatant and as purified antibody; also called MAb 1A12
ratio [1]: 78.1
X Geo Mean (Transients) [2]: 290
FL1 X COUNT [3]: 696000
% Inh of Gli1 reporter, Co-Culture N = 1 [4]: 40%
% Inh of Gli1 reporter, Co-Culture N = 2 [4]: 32%
% Inh of Gli1 reporter, CM N = 1 [5]: 25%
% Inh of Gli1 reporter, CM N = 3 [5]: 43%
OD450 (biotinylated human Shh): 4.09 OD450
IC50, inhibition of osteoblast differentiation (alkaline phosphatase) of C3H10T1/2 cells [6]: 4.6 nM
% Inhibition of Gli1 reporter, Co-Culture N = 1, 20 µg/ml [7]: 58%
% Inhibition of Gli1 reporter, Co-Culture N = 2, 20 µg/ml [7]: 59%
% Inhibition of Gli1 reporter, Co-Culture N = 3, 20 µg/ml [7]: 22%
% Inhibition of Gli1 reporter, Conditioned Media N = 1, 20 µg/ml [8]: 18%
% Inhibition of Gli1 reporter, Conditioned Media N = 2, 20 µg/ml [8]: 57%

Further lines, results first:

ratio [1]: 9.1
X Geo Mean (Transients) [2]: 34.4
FL1 X COUNT [3]: 1.11e+06
% Inh of Gli1 reporter, Co-Culture N = 1 [4]: 48%
% Inh of Gli1 reporter, Co-Culture N = 2 [4]: 19%
% Inh of Gli1 reporter, CM N = 1 [5]: 38%
% Inh of Gli1 reporter, CM N = 3 [5]: 40%
OD450 (biotinylated human Shh): 3.73 OD450
% Inhibition of Gli1 reporter, Co-Culture N = 1, 20 µg/ml [7]: 8%
% Inhibition of Gli1 reporter, Co-Culture N = 2, 20 µg/ml [7]: 15%
% Inhibition of Gli1 reporter, Co-Culture N = 3, 20 µg/ml [7]: 13%
% Inhibition of Gli1 reporter, Conditioned Media N = 1, 20 µg/ml [8]: -5%
% Inhibition of Gli1 reporter, Conditioned Media N = 2, 20 µg/ml [8]: -5%
B4: 1H12 (antibody, V domains shown)
VH: QVQLVQSGAEVKKPGASVKVSCKASGYTFTGYYMHWVRQAPGQGLEWVGWFNPNSGGTNCAQKFQGRVTMTRDTSISTAYMELSRLRSDDTAVYYCAREAVESYYYGLDVWGQGTTVTVSS
VL: QSVVTQPPSASGTPGQRITISCSGSSSNIGSNYVYWYHQLPGSAPNLLIYRNNQRPSGVPDRFSGSKSGTSASLAISGLRSEDEADYFCAVWDDSLRGVVFGGGTKLTVL
notes: fully human XenoMouse hybridoma antibody; tested as hybridoma supernatant and as purified antibody; also called MAb 1H12

ratio [1]: 44.1
X Geo Mean (Transients) [2]: 165
FL1 X COUNT [3]: 89600
% Inh of Gli1 reporter, Co-Culture N = 1 [4]: 38%
% Inh of Gli1 reporter, Co-Culture N = 2 [4]: 42%
% Inh of Gli1 reporter, CM N = 1 [5]: 52%
% Inh of Gli1 reporter, CM N = 3 [5]: 42%
OD450 (biotinylated human Shh): 4.04 OD450
IC50, inhibition of osteoblast differentiation (alkaline phosphatase) of C3H10T1/2 cells [6]: 5.7 nM
% Inhibition of Gli1 reporter, Co-Culture N = 1, 20 µg/ml [7]: 32%
% Inhibition of Gli1 reporter, Co-Culture N = 2, 20 µg/ml [7]: 25%
% Inhibition of Gli1 reporter, Co-Culture N = 3, 20 µg/ml [7]: 36%
% Inhibition of Gli1 reporter, Conditioned Media N = 1, 20 µg/ml [8]: 34%
% Inhibition of Gli1 reporter, Conditioned Media N = 2, 20 µg/ml [8]: 48%
B5: 1H8 (antibody, V domains shown)
VH: QVQLQESGPGLVKPSETLSLTCTVSGGSISSYYWTWIRQPPGKGLEWIGYIYYSGSTNYNPSLKSRVTISVDTSKNQFSLKLSSVTAADTAVYYCARDRLLYGMDVWGQGTTVTVSS
VL: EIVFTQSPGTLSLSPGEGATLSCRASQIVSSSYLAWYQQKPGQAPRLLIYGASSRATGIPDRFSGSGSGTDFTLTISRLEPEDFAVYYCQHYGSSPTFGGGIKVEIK
notes: fully human XenoMouse hybridoma antibody; also called MAb 1H8

ratio [1]: 40.9
X Geo Mean (Transients) [2]: 150
FL1 X COUNT [3]: 370000
% Inh of Gli1 reporter, Co-Culture N = 1 [4]: 37%
% Inh of Gli1 reporter, Co-Culture N = 2 [4]: 23%
% Inh of Gli1 reporter, CM N = 1 [5]: 43%
% Inh of Gli1 reporter, CM N = 3 [5]: 28%
OD450 (biotinylated human Shh): 3.46 OD450
IC50, inhibition of osteoblast differentiation (alkaline phosphatase) of C3H10T1/2 cells [6]: 4.4 nM
% Inhibition of Gli1 reporter, Co-Culture N = 1, 20 µg/ml [7]: 47%
% Inhibition of Gli1 reporter, Co-Culture N = 2, 20 µg/ml [7]: 68%
% Inhibition of Gli1 reporter, Co-Culture N = 3, 20 µg/ml [7]: 4%
% Inhibition of Gli1 reporter, Conditioned Media N = 1, 20 µg/ml [8]: 48%
% Inhibition of Gli1 reporter, Conditioned Media N = 2, 20 µg/ml [8]: 24%
B7: 1H10 (antibody, V domains shown)
VH: B6 VH with Y3Q, Y53N, Y111D
VL: B6 VL with A9G, S30G, I58V
notes: fully human XenoMouse hybridoma antibody; tested as hybridoma supernatant and as purified antibody; also called MAb 1H10

ratio [1]: 50.2
X Geo Mean (Transients) [2]: 196
FL1 X COUNT [3]: 625000
% Inh of Gli1 reporter, Co-Culture N = 1 [4]: 31%
% Inh of Gli1 reporter, Co-Culture N = 2 [4]: 34%
% Inh of Gli1 reporter, CM N = 1 [5]: 46%
% Inh of Gli1 reporter, CM N = 3 [5]: 22%
OD450 (biotinylated human Shh): 5.14 OD450
IC50, inhibition of osteoblast differentiation (alkaline phosphatase) of C3H10T1/2 cells [6]: 3.3 nM
% Inhibition of Gli1 reporter, Co-Culture N = 1, 20 µg/ml [7]: 44%
% Inhibition of Gli1 reporter, Co-Culture N = 2, 20 µg/ml [7]: 76%
% Inhibition of Gli1 reporter, Co-Culture N = 3, 20 µg/ml [7]: 22%
% Inhibition of Gli1 reporter, Conditioned Media N = 1, 20 µg/ml [8]: 73%
% Inhibition of Gli1 reporter, Conditioned Media N = 2, 20 µg/ml [8]: 43%
B8: 4B6 (antibody, V domains shown)
VH: B6 VH with Y3Q, S31T
VL: B6 VL with V51I, K104R
notes: fully human XenoMouse hybridoma antibody; tested as hybridoma supernatant and as purified antibody; also called MAb 4B6

ratio [1]: 2.2
X Geo Mean (Transients) [2]: 8.3
FL1 X COUNT [3]: 327000
% Inh of Gli1 reporter, Co-Culture N = 1 [4]: 30%
% Inh of Gli1 reporter, Co-Culture N = 2 [4]: 35%
% Inh of Gli1 reporter, CM N = 1 [5]: 32%
% Inh of Gli1 reporter, CM N = 3 [5]: 40%
OD450 (biotinylated human Shh): 2.49 OD450
IC50, inhibition of osteoblast differentiation (alkaline phosphatase) of C3H10T1/2 cells [6]: 7.1 nM
% Inhibition of Gli1 reporter, Co-Culture N = 1, 20 µg/ml [7]: 35%
% Inhibition of Gli1 reporter, Co-Culture N = 2, 20 µg/ml [7]: 43%
% Inhibition of Gli1 reporter, Co-Culture N = 3, 20 µg/ml [7]: 28%
% Inhibition of Gli1 reporter, Conditioned Media N = 1, 20 µg/ml [8]: 23%
% Inhibition of Gli1 reporter, Conditioned Media N = 2, 20 µg/ml [8]: 44%
B9: 1G12 (antibody, V domains shown)
VH: B6 VH with Y3Q, S31T, E58K, K65N, A88G
VL: B6 VL with A19V, F49Y, N92D, D93N
notes: fully human XenoMouse hybridoma antibody; tested as hybridoma supernatant and as purified antibody; also called MAb 1G12

Source: patent publication US20120328625A1 (AstraZeneca / MedImmune, published 2012)
